{"source": "paper PMC3416805", "target": "endogenous ASR1 from tomato fruit nuclei (tomato (endogenous in tomato fruit)) (UniProt Q08655)", "test": "cross-linking; formaldehyde crosslinking of ground tomato fruit pericarp, nuclei purified, nuclear proteins passed over a Ni2+ column, SDS-PAGE and immunoblot with anti-ASR1 antiserum", "note": "Where “and” joins values, the source holds several entries; their conditions need not be identical. Equal entries are not always repeated.", "data": [{"substance": "endogenous ASR1 from tomato fruit nuclei (from UniProt Q08655 1-115) (natural protein)", "values": [{"measurement": "percent of nuclear ASR1 in a monomeric form", "value": "> 90", "unit": "%"}, {"measurement": "stoichiometry N", "value": "2 and 3"}]}]}
